Reference: the Immune Epitope Database (IEDB)

Tests used:
HLA-B*58:01 = assay: IEDB peptide-MHC binding, purified MHC/direct/fluorescence; filed as Kd, often an IC50 or EC50 that approximates it; ≥ and ≤ were set here for values at or beyond the usual limits of such assays
HLA-B*57:01 = assay: as above
HLA-B*15:17 = assay: as above
HLA-B*53:01 = assay: IEDB peptide-MHC binding, purified MHC/competitive/radioactivity; filed as Kd, often an IC50 or EC50 that approximates it; ≥ and ≤ were set here for values at or beyond the usual limits of such assays
HLA-B*51:01 = assay: as above
HLA-B*54:01 = assay: as above
HLA-B*35:01 = assay: as above
HLA-B*07:02 = assay: as above
HLA-A*01:01 = assay: IEDB peptide-MHC binding, purified MHC/direct/fluorescence; filed as Kd, often an IC50 or EC50 that approximates it; ≥ and ≤ were set here for values at or beyond the usual limits of such assays; conditions: source organism: SARS-CoV1
HLA-A*02:11 = assay: as above; conditions: source organism: SARS-CoV1
HLA-A*24:02 = assay: IEDB peptide-MHC binding, purified MHC/competitive/radioactivity; filed as Kd, often an IC50 or EC50 that approximates it; ≥ and ≤ were set here for values at or beyond the usual limits of such assays; conditions: source organism: SARS coronavirus Tor2
HLA-A*26:01 = assay: as above; conditions: source organism: SARS coronavirus Tor2
HLA-A*30:02 = assay: as above; conditions: source organism: SARS coronavirus Tor2
HLA-A*23:01 = assay: as above; conditions: source organism: SARS coronavirus Tor2
HLA-A*29:02 = assay: as above; conditions: source organism: SARS coronavirus Tor2
HLA-A*03:01 = assay: IEDB peptide-MHC binding, purified MHC/competitive/fluorescence; filed as Kd, often an IC50 or EC50 that approximates it; ≥ and ≤ were set here for values at or beyond the usual limits of such assays
HLA-A*11:01 = assay: IEDB peptide-MHC binding, purified MHC/competitive/fluorescence; ≥ and ≤ were set here for values at or beyond the usual limits of such assays
HLA-A*02:01 = assay: as above; conditions: source organism: Zaire ebolavirus
HLA-B*48:01 = assay: IEDB peptide-MHC binding, purified MHC/direct/fluorescence; filed as Kd, often an IC50 or EC50 that approximates it; ≥ and ≤ were set here for values at or beyond the usual limits of such assays; conditions: source organism: dengue virus type 4
[1] = source organism: Cryptosporidium parvum
[2] = source organism: Vaccinia virus WR
[3] = source organism: Listeria monocytogenes serotype 4b str. H7858
[4] = source organism: Camelpox virus M-96
[5] = source organism: Mammarenavirus whitewaterense
[6] = source organism: West Nile virus
[7] = source organism: Zaire ebolavirus
[8] = source organism: Mammarenavirus lassaense

KACPPGFVF was tested, and the Kd (HLA-B*58:01; [1]) was 0.0177 µM, the Kd (HLA-B*57:01; [1]) was 2.48 µM and the Kd (HLA-B*15:17; [1]) was 0.143 µM.
KPFNNILNLI was tested, and the Kd (HLA-B*53:01; [2]) was at least 69.9 µM, the Kd (HLA-B*51:01; [2]) was at least 10 µM and the Kd (HLA-B*54:01; [2]) was at least 69.9 µM. For the same sequence, the Kd (HLA-B*35:01; [2]) was at least 69.9 µM and the Kd (HLA-B*07:02; [2]) was 1.14 µM.
KSAYPFDEL gave a Kd (HLA-B*58:01; [3]) of 0.046 µM, a Kd (HLA-B*57:01; [3]) of at least 20 µM and a Kd (HLA-B*15:17; source organism: Listeria monocytogenes) of 0.134 µM.
Sequence KSVTKSSSW has a Kd (HLA-B*58:01; [4]) of 0.0162 µM, a Kd (HLA-B*57:01; [4]) of 0.108 µM and a Kd (HLA-B*15:17; [4]) of at most 0.001 µM.
LPMIIGEPII showed a Kd (HLA-B*53:01; [2]) of 0.0333 µM, a Kd (HLA-B*51:01; [2]) of 0.456 µM and a Kd (HLA-B*54:01; [2]) of 0.0311 µM. For the same sequence, the Kd (HLA-B*35:01; [2]) was 0.75 µM and the Kd (HLA-B*07:02; [2]) was 0.00912 µM.
LPPFTQHLL was tested, and the Kd (HLA-B*53:01; [2]) was 0.0913 µM, the Kd (HLA-B*51:01; [2]) was 0.0186 µM and the Kd (HLA-B*54:01; [2]) was 3.03 µM. It also gave a Kd (HLA-B*35:01; [2]) of 0.24 µM and a Kd (HLA-B*07:02; [2]) of 0.401 µM.
For NPTNISKCF, the Kd (HLA-B*53:01; [5]) was 0.0777 µM, the Kd (HLA-B*51:01; [5]) was 5.74 µM and the Kd (HLA-B*54:01; [5]) was 3.47 µM. For the same sequence, the Kd (HLA-B*35:01; [5]) was 0.199 µM and the Kd (HLA-B*07:02; [5]) was 8.66 µM.
PPLISILMIF was tested, and the Kd (HLA-B*53:01; [2]) was 0.497 µM, the Kd (HLA-B*51:01; [2]) was 2.02 µM and the Kd (HLA-B*54:01; [2]) was 3.12 µM. For the same sequence, the Kd (HLA-B*35:01; [2]) was 0.761 µM and the Kd (HLA-B*07:02; [2]) was 0.27 µM.
PVDEYITTY was tested, and the Kd (HLA-A*01:01) was 0.044 µM, the Kd (HLA-A*02:11) was at least 20 µM and the Kd (HLA-A*24:02) was at least 77.6 µM. For the same sequence, the Kd (HLA-A*26:01) was 10.8 µM, the Kd (HLA-A*30:02) was 1.48 µM and the Kd (HLA-A*23:01) was at least 77.8 µM. The Kd (HLA-A*29:02) was 0.544 µM.
RCYPGYTLK showed a Kd (HLA-A*03:01; source organism: Giardia lamblia ATCC 50803) of 0.0623 µM.
RVLEMVEDW was tested, and the Kd (HLA-B*57:01; [6]) was 0.0879 µM and the Kd (HLA-B*15:17; [6]) was 0.0432 µM.
SPLPSLEYGA gave a Kd (HLA-B*53:01; [2]) of 12.4 µM, a Kd (HLA-B*51:01; [2]) of at least 69.6 µM and a Kd (HLA-B*54:01; [2]) of 0.000204 µM. For the same sequence, the Kd (HLA-B*35:01; [2]) was 6 µM and the Kd (HLA-B*07:02; [2]) was 1.64 µM.
SPTEMVDVSM showed a Kd (HLA-B*53:01; [2]) of 1.94 µM, a Kd (HLA-B*51:01; [2]) of at least 69.6 µM and a Kd (HLA-B*54:01; [2]) of at least 42.7 µM. For the same sequence, the Kd (HLA-B*35:01; [2]) was 0.0372 µM and the Kd (HLA-B*07:02; [2]) was 0.122 µM.
TPLHKYCVNL was tested, and the Kd (HLA-B*53:01; [2]) was 0.891 µM, the Kd (HLA-B*51:01; [2]) was at least 37.1 µM and the Kd (HLA-B*54:01; [2]) was 4.86 µM. For the same sequence, the Kd (HLA-B*35:01; [2]) was 7.36 µM and the Kd (HLA-B*07:02; [2]) was 0.0113 µM.
With TPVYKLDIS the IC50 (HLA-A*11:01; [7]) was 65.8 µM and the IC50 (HLA-A*02:01) was at least 170 µM.
VLRRGALAH gave a Kd (HLA-A*03:01; source organism: Vibrio cholerae 2740-80) of 0.014 µM.
With VLTGGTGVG the IC50 (HLA-A*11:01; source organism: Variola virus) was at least 80.6 µM.
VVAFLILPQ showed an IC50 (HLA-A*11:01; [7]) of at least 1240 µM and an IC50 (HLA-A*02:01) of at least 1420 µM.
WRTIMAVLF gave a Kd (HLA-B*48:01) of at least 20 µM.
In the case of YMFESKRMK, the Kd (HLA-A*03:01; source organism: Influenza A virus (A/swine/Finistere/127/99(H3N2))) is reported as 0.0194 µM.
YPNSSDLDM was tested, and the Kd (HLA-B*53:01; [8]) was 0.0141 µM, the Kd (HLA-B*51:01; [8]) was 0.78 µM and the Kd (HLA-B*54:01; [8]) was at least 53.9 µM. The Kd (HLA-B*35:01; [8]) was 0.00823 µM and the Kd (HLA-B*07:02; [8]) was 0.233 µM.
